# Measured values taken from patent US20260049134A1 (UNIVERSITY OF FLORIDA RESEARCH FOUNDATION, published 2026).
# Substitutions are numbered along the chain they refer to. Names and notes keep the numbering of the source.
# T1: IGSF11 (VSIG3)
# T1 construct: coated protein in the ELISA; also called IGSF11-Fc (R&D Systems)
# T1 chain: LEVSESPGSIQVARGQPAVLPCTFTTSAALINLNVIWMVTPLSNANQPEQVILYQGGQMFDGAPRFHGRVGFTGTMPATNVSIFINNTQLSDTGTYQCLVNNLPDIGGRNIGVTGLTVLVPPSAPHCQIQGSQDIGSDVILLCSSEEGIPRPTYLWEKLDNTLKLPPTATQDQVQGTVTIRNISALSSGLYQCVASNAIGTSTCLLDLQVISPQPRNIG
# T2: GARS-His (Sino Biological) (human, UniProt P41250 37-739, limits assumed)
# T2 construct: Bought; also called GARS1; glycyl-tRNA synthetase; not shown: His tag of the bought protein
# T2 sequence: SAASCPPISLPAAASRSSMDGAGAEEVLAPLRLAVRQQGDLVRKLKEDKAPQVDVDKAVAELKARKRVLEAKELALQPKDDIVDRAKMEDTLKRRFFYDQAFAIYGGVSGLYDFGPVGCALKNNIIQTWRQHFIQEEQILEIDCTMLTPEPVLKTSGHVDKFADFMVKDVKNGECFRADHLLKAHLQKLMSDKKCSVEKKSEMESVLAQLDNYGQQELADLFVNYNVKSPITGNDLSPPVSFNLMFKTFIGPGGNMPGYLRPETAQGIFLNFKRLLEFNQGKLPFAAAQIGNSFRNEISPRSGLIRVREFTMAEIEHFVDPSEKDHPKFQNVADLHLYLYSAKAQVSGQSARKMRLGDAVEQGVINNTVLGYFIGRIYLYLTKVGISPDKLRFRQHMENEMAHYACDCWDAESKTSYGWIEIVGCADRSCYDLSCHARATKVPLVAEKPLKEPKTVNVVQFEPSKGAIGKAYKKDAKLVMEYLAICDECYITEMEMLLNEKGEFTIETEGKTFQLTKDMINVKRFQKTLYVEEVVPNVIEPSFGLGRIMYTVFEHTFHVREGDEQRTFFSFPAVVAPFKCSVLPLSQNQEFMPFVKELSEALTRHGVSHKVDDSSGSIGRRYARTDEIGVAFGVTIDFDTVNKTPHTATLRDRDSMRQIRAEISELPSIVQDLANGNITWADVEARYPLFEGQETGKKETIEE
# T3: IL13RA1
# T3 construct: coated protein in the ELISA; also called IL13RA1-Fc-His (R&D Systems)
# T3 chain: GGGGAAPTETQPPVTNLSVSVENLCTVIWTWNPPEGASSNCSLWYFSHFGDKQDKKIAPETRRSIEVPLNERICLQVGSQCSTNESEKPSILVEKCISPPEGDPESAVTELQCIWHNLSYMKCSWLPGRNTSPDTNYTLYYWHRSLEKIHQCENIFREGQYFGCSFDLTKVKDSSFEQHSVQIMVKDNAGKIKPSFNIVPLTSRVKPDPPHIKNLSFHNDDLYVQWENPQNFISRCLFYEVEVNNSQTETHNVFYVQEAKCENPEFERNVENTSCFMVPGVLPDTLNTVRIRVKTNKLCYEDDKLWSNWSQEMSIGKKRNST
# T4: CADM1-His (Acro Biosystems) (human, UniProt Q9BY67 45-374)
# T4 construct: Bought; also called CADM1/IGSF4A; not shown: His tag of the bought protein
# T4 sequence: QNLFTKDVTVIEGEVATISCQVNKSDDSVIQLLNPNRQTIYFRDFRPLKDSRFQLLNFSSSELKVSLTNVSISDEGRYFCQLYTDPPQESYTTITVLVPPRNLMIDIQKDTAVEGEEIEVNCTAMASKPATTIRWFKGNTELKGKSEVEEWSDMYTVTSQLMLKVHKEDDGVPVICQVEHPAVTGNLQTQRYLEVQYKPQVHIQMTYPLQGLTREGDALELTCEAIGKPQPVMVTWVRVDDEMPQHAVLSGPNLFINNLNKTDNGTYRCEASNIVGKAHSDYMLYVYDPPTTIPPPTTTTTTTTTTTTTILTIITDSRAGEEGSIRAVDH
# B1: TH9-0022 (antibody, human IgG1, kappa, L234A L235A, V domains shown)
# VH: QSLEESGGRLVTPGTPLTLTCTVSGFSLSSYAMNWVRQAPGKGLEWIGIINSYGSTYYASWAKGRFTISKTSTTVDLKITSPTTEDTATYFCARVTYDSYGYGYAPYGMDLWGPGTLVTVSS
# VL: LVMTQTPSSTSNAVGGTVTIKCQASQSIGNVLAWYQQKPGQPPKLLIYAASTLASGVPSRVGGSRSGTEYTLTISGVQREDAATYYCLGSDSDSDIAFGGGTELEILR
# notes: also called TH9-022; negative control
# B2: HW-42 chimeric rabbit-human IgG1 LA/LA/PG (antibody, V domains shown)
# VH: QSVKESEGGLFKPADTLTLTCTVSGFSLSSNEISWVRQAPGEGLEYIGIIDTGGRAYYAVWARSRSTITRNTNLNTVTLKMTSLTAADTATYFCARGGVDTEWYAFSSWGPGTLVTVPS
# VL: SFVLTQPASVQVNLGQTVSLTCTADTLSRRYASWYQQKPGQAPVLLIFRDTSRPSGVPDRFSGSSSGDTATLTISGAQAGDEADYYCATSDGSGSNYQYVFGGGTQLTVTG
# notes: Fc-silenced (L234A/L235A/P329G) IgG1, lambda; Alexa Fluor 647-labeled in single-step flow cytometry; Cluster C-1
# B3: HW-70 chimeric rabbit-human IgG1 LA/LA/PG (antibody, V domains shown)
# VH: QSLEESGGRLVTPGTPLTLTCTVSGFSLSSNAMSWVRQAPGKGLEWIGTIDGYGYTYYASWAKGRFTVSKTSTTVDLKITSPTTEDTATYFCAREIYLGSNFWGPGTLVTISS
# VL: B2 VL with F48Y, D68N, S90A, N96S, Y99F
# notes: as for B2
# B4: HW-25 chimeric rabbit-human IgG1 LA/LA/PG (antibody, V domains shown)
# VH: QSLEESGGRLVTPGTPLTLTCTVSGFSLSSYAMGWVRQAPGKGLEWIGIIDSRGSTYYATWAKGRFTISKTSTTVDLKITSPTTEDTATYFCAREDSYYYDSFNLWGPGTLVTVSS
# VL: B2 VL with F48Y, D68N, N96S, Y99C
# notes: as for B2
# B5: HW-1 chimeric rabbit-human IgG1 LA/LA/PG (antibody, V domains shown)
# VH: QSLEESGGGLFKPTDTLTLTCTASGFSLGSSYAISWVRQAPGKELEWIGTIDSGRAYYARWAKSRSTITRNTNENTVTLKMTSLTAADTATYFCARDLIPTYSQDIWGPGTLVTISS
# VL: B2 VL with F48Y, D68N, S95N, N96S, G111S
# notes: Fc-silenced (L234A/L235A/P329G) IgG1, lambda; Alexa Fluor 647-labeled in single-step flow cytometry; Prototype of cluster C-1
# B6: HW-17 chimeric rabbit-human IgG1 LA/LA/PG (antibody, V domains shown)
# VH: QSLGESRGRLVTPDETLTLTCTVSGIDLSSNAMSWVRQAPGEGLEWIGTINTGGRAYYASWAKGRFTISRTSTTVDLKMTSLTTEDTATYFCARERYSDGRAYDIWGPGTLVTISS
# VL: B2 VL with F48Y, R49T, T51S, S52N, V57I, D68N, S90D, N96I
# notes: as for B2
# B7: HW-56 chimeric rabbit-human IgG1 LA/LA/PG (antibody, V domains shown)
# VH: QSVKESEGGLFKPTDTLTLTCTASGFTVSTNAVTWVRQAPGNGLEYIGTIGRSGSAYFASWAKRRSTLTRDINLNTVTLKMTSLTAADTATYFCVRGSPGYRTAISIWGPGTLVTISS
# VL: AVMTQTPSSTSAAVEGTVTINCQASQSISNRLSWFQQKPGQPPKLLIYQASTLASGVPSRFKGSGSGTEFTLTISGVQREDAATYYCLGSYSSSDASFGGGTKLEIKR
# notes: Fc-silenced (L234A/L235A/P329G) IgG1, kappa; Alexa Fluor 647-labeled in single-step flow cytometry; Cluster C-45
# B8: HW-81 chimeric rabbit-human IgG1 LA/LA/PG (antibody, V domains shown)
# VH: QKQLVESGGGLVTPGGTLTLTCTVSGFSLSSNGVSWVRQAPGKGLEYIGLIRSIGSTYYATWAKGRFTISKTSTTVDLKITSPTTEDTATYFCARGGYRNGFKLWGPGTLVTVSS
# VL: QPVLTQSPSVSAALGASAKLTCTLSSAHKTYYIEWYQQQHPGKAPRYLMQLQSDGSYTKGTGVPDRFSGSSSGADRYLIISSVQAEDEADYICGVIDSAVYVFGGGTQLTVTG
# notes: Fc-silenced (L234A/L235A/P329G) IgG1, lambda; Alexa Fluor 647-labeled in single-step flow cytometry; Cluster C-45
# B9: HW-8 chimeric rabbit-human IgG1 LA/LA/PG (antibody, V domains shown)
# VH: QSLEESGGRLVTPGTPLTLTCTVSGFSLSSYAMSWVRQAPGKGLEWIGAISTGGSTTYASWAKGRFTISKTSSTTVDLKMTSLTTEDTATYFCVRHFRLWGPGTLVTISS
# VL: QVLTQTPSSVSAAVGGTVTIKCQASQSIGSALAWFQQKPGQRPKLLIYRASNLASGVPSRFKGSGSGTEFALTISGVQREDAATYYCLGGAAAVWAFGAGTNVEIKR
# notes: as for B7
# B10: HW-28 chimeric rabbit-human IgG1 LA/LA/PG (antibody, V domains shown)
# VH: QKQLVESGGRLVTPGTPLTLTCTASGFSLSSNAMSWVRQAPGEGLQWIGTISSGGSTYYASWAKGRFTISKTSTTVTLKMTSLTTEDTATYFCARGADLHRLWGPGTLVTVSS
# VL: B2 VL with A24G, D25K, T26P, R30S, Y31F, L46V, F48Y, D68N, N96S
# notes: as for B8
# B11: HW-45 chimeric rabbit-human IgG1 LA/LA/PG (antibody, V domains shown)
# VH: QKQLVESGGRLVTPGTPLTLTCTVSGFSLSSYAMGWFRQAPGKGLEWIGIINSYGSTYYASWAKGRFTISKTSTTVDLKITSPTTEDTATYFCGRRIGSARFDPWGPGTLVTVSS
# VL: B2 VL with R30S, F48Y, S52R, D68N, N96S, Q98R, Y99L
# notes: Fc-silenced (L234A/L235A/P329G) IgG1, lambda; Alexa Fluor 647-labeled in single-step flow cytometry; Prototype of cluster C-45
# Target: T1, IGSF11 (VSIG3)
# Assay: ELISA on coated IGSF11-Fc
# Protocol: (§1) Recombinant purified ECDs (50-150 ng) of each putative target protein were coated, incubated with 150 ng of the indicated primary antibody, and binding was detected using a peroxidase-conjugated anti-human Fab secondary antibody. Heatmap represents averages of technical triplicates. (8B) Target validation via siRNA knockdown. H929 cells were transfected with siRNA pools targeting the putative antibody targets ICAM1, CADM1, and PTPRG. Cells were then subjected to cognate IgG binding analysis via flow cytometry. (NT, non-targeting siRNA).
# (§2) ELISA ELISA was conducted as described previously. Briefly, 50-150 ng of antigen was coated overnight in half-area 96-well plates at 4° C., blocked with 3% BSA at 37° C. for 1 h, and 150 ng of chimeric rabbit/human IgG1 was added, incubating for 2 h at 37° C. […] After incubating at 37° C. for 15 min-1 h (depending on intensity of controls), data were acquired using a SpectraMax M5 plate reader (Molecular Devices).
row,Binder,binding result
1,B1,no binding (tested: 150 ng IgG1 per well)
2,B2,no binding (tested: 150 ng IgG1 per well)
3,B3,no binding (tested: 150 ng IgG1 per well)
4,B4,no binding (tested: 150 ng IgG1 per well)
5,B5,no binding (tested: 150 ng IgG1 per well)
6,B6,no binding (tested: 150 ng IgG1 per well)
7,B7,no binding (tested: 150 ng IgG1 per well)
8,B8,no binding (tested: 150 ng IgG1 per well)
9,B9,no binding (tested: 150 ng IgG1 per well)

# Target: T5, APP
# T5 construct: His-tagged; coated protein in the ELISA; also called APP-His (Acro Biosystems)
# Assay: ELISA on coated APP-His, 150 ng IgG1; None 0.092
# Protocol: as §1, §2
row,ELISA Absorbance (405 nm-570 nm),Binder
1,0.082,B1
2,0.087,B2
3,0.089,B3
4,0.144,B10
5,0.066,B4
6,0.071,B5
7,0.233,B11
8,0.062,B6
9,0.112,B7
10,0.081,B8
11,0.071,B9

# Target: T2, GARS-His (Sino Biological)
# Assay: ELISA on coated GARS-His, 150 ng IgG1; None 0.099
# Protocol: as §1, §2
row,ELISA Absorbance (405 nm-570 nm),Binder
1,0.098,B1
2,0.099,B2
3,0.087,B3
4,0.628,B10
5,0.103,B4
6,0.091,B5
7,0.741,B11
8,0.074,B6
9,0.651,B7
10,0.641,B8
11,0.081,B9

# Target: T3, IL13RA1
# Assay: ELISA on coated IL13RA1-Fc-His, 150 ng IgG1; None 0.094
# Protocol: as §1, §2
row,ELISA Absorbance (405 nm-570 nm),Binder
1,0.08,B1
2,0.102,B2
3,0.085,B3
4,0.074,B4
5,0.08,B5
6,0.073,B6
7,0.16,B7
8,0.099,B8
9,0.077,B9

# Target: T4, CADM1-His (Acro Biosystems)
# Assay: ELISA on coated CADM1-His, 150 ng IgG1; None 0.059
# Protocol: as §1, §2
row,ELISA Absorbance (405 nm-570 nm),Binder
1,0.055,B1
2,0.061,B2
3,0.053,B3
4,0.045,B4
5,0.053,B5
6,0.048,B6
7,0.059,B7
8,0.05,B8
9,0.05,B9
